Laboratory results taken from PMC10144504 (Cell, 2023).
Values belong to the molecule of their own block, whether it stands above or below them.

Legend:
[1] = target: Nanoluc-GCGR fusion protein (human) (UniProt P47871); test: FRET or BRET
[2] = target: mC-GCGR-31C-NBD (minimal cysteine GCGR labelled with NBD on the N-terminal helix of the ECD) (human) (UniProt P47871); test: other fluorescence titration
[3] = target: mC-GCGR-345C-NBD (minimal cysteine GCGR labelled with NBD at the cytoplasmic end of TM6) (human) (UniProt P47871); test: other fluorescence titration
[4] = target: Human glucagon receptor (Q27-F477) (human, UniProt P47871 27-477); test: pull-down
Sequence of Human glucagon receptor (Q27-F477) (P47871 27-477): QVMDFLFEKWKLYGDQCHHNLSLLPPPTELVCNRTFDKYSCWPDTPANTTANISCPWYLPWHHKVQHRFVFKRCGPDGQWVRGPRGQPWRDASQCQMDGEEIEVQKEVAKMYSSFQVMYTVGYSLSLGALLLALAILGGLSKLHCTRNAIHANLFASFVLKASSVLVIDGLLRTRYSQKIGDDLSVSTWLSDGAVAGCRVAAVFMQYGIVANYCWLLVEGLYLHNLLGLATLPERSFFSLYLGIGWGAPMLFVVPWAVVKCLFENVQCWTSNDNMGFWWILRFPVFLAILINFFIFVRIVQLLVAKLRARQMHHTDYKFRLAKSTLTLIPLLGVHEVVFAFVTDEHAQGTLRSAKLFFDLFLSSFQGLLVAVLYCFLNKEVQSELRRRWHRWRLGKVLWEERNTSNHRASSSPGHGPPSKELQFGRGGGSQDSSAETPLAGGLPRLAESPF

Sequence of Nanoluc-GCGR fusion protein (human) (P47871 26-477): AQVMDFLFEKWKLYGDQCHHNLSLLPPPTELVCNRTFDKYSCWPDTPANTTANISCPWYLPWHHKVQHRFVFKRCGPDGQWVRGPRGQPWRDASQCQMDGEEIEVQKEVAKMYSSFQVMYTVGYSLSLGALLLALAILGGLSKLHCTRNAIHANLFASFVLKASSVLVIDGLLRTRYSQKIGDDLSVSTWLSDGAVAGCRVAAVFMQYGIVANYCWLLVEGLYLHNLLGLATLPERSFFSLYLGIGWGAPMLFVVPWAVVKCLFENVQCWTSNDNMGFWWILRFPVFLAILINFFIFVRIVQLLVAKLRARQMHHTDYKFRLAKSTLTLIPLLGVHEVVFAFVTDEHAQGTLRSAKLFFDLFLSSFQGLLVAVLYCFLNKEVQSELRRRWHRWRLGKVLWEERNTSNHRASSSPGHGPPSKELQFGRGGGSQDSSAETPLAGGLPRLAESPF

fold decrease in affinity with co-expressed RAMP2 against without RAMP2 [1]: 2.9 fold
Molecule: Dasi-E21S-A17K(TAMRA) (peptide)

EC50 [2]: 131 nM
EC50 [3]: 225 nM
Molecule: human RAMP2 (residues 43-175) (from UniProt O60895 43-175) (natural protein)

binding result [4]: binds
B1: human RAMP2 (residues 43-175) (natural protein, UniProt O60895 43-175, looked up)
chain: QPLPTTGTPGSEGGTVKNYETAVQFCWNHYKDQMDPIEKDWCDWAMISRPYSTLRDCLEHFAELFDLGFPNPLAERIIFETHQIHFANCSLVQPTFSDPPEDVLLAMIIAPICLIPFLITLVVWRSKDSEAQA
